Consider 8 molecules from patent publication US11912782B2, “BCMA monoclonal antibody-drug conjugate” (MedImmune, LLC, priority 2017, dated 2024).

For experiment [1], the system named is MM.1S xenograft. Briefly: MM.1S subcutaneous xenograft model (Example 9). Format: in vivo, mouse. The conditions noted are these: 3 mg/kg intravenous, observed for 85 days post tumor implantation. The text has this:
(§1) Subcutaneous xenograft mouse models of multiple myeloma and plasma cell leukemia were generated by implanting BCMA-expressing multiple myeloma or plasma cell leukemia cell lines (i.e., NCI-H929 and MM.1S) into female CB-17 SCID (C.B-17/IcrHsd-Prkdc-scid) mice using MATRIGEL™ (BD Biosciences, San Jose, Calif.). Once tumors reached approximately 200 mm^3 (NCI-H929 cells) or 180 mm^3 (MM.1S cells), mice were randomized based on tumor size and placed into dosing groups and treated with BCMA-targeting ADCs as described below.
Mice were treated with either a single intravenous dose of the ADCs IgG1-SG3400 or 15B2GL-SG3400 at 1 mg/kg or 3 mg/kg or dosed intravenously with J6M0-SG3400 at a dose of 1 mg/kg or 3 mg/kg. Control mice were left untreated.

Another experiment deals with MM.1S cells. Put plainly: Cell killing in the presence of soluble BCMA (conditioned media from Ad293 cells expressing human BCMA). Format: cell-based. The method, then: Killing of multiple myeloma and plasma cell leukemia cell lines by antibody-drug conjugates comprising 15B2GL, or affinity-optimized clones thereof, conjugated to SG3249 was evaluated in vitro using the protocol recommended in the CELLTITER-GLO® kit (Promega, Madison, Wis.). Killing of multiple myeloma and plasma cell leukemia cell lines by the free warhead SG3199 also was evaluated using the protocol recommended in the CELLTITER-GLO® kit (Promega, Madison, Wis.). Briefly, 5×10^3 cells in 80 μL RPMI+10% FBS were added to the inner wells of white-walled 96-well plates (Corning® Costar®, Fisher Scientific, Waltham, Mass.). The following BCMA-expressing cell lines were tested: NCI-H929, EJM, MM.1R. JJN3, OPM-2, MM.1S, U266.B1, and L363. BMCA-negative cell lines Raji and Jurkat also were tested. The antibody-drug conjugates were diluted to a 5× stock (2.5 μg/mL) in RPMI+10% FBS. Treatments were then serially diluted 1:3 in RPMI+10% FBS. 20 μL of this series was added to the cells in duplicate, resulting in a 12-point dose curve of antibody-drug conjugate ranging from 0.5 μg/mL at the highest concentration to 3×10^−[…] at the lowest. Isotype antibody-drug conjugate (IgG1-SG3249 and IgG1-mc-MMAF) and media-only controls also were included. Plates were incubated at 37° C., 5% CO2 for 96 hours. At the end of the incubation period, 100 μL of the Substrate Solution (Promega, Madison Wis.) was added to each well. Luminescence was measured using an EnVision™ Multilabel plate reader (Perkin Elmer, Waltham, Mass.). Data were analyzed and graphed using GraphPad Prism™ software (GraphPad Software, Inc., La Jolla, Calif.), and the half-maximal inhibitory concentration (IC50) was determined.
The ability of the 15B2GL-SG3249 ADC to kill multiple myeloma cells in vitro in the presence of soluble BCMA (sBCMA) as compared to the I09-5G3249 ADC was evaluated in MM.1S cells using the protocol described above, except that tested cell lines also were treated with BCMA-containing conditioned media collected from Ad293 cells expressing human BCMA (FIGS. 3A and 3B). 15B2GL-SG3249 ADC cell killing in the presence of sBCMA also was compared to ADCs comprising the anti-BCMA antibody J6M0, which is described in U.S. Pat. No. 9,273,141.

For experiment [2], the system named is MM.1S xenograft. Briefly: MM.1S subcutaneous xenograft model (Example 5). Format: in vivo, mouse. The conditions noted are these: single intravenous dose 1 mg/kg, observed for 99 days post tumor implantation.
From the text: as §1, with “(i.e., NCI-H929, JJN-3, MM.1S,” for “(i.e., NCI-H929”, “and MM.1R)” for “and MM.1S)”, “(C.B-17/IcrHsd-Prkdc-scid) or athymic nude (Foxn1^nu)” for “(C.B-17/IcrHsd-Prkdc-scid)”, “approximately 180” for “approximately 200”, “(NCI-H929 cells), 190 mm^3 (JJN3 cells), 160” for “(NCI-H929 cells) or 180”, “(MM.1S cells), or 175 mm^3 (MM.1R” for “(MM.1S”
Mice were treated with either a single intravenous dose of 15B2GL-SG3249, 109-SG3249, L15-SG3249 ADCs at 1 mg/kg or dosed intravenously with J6M0-mc-MMAF twice weekly at a dose of 1 mg/kg for 4 weeks. Control mice were left untreated.

The test system of a further experiment is NCI-H929 xenograft. Briefly: NCI-H929 subcutaneous xenograft model (Example 5). The conditions noted are these: single intravenous dose 0.3 mg/kg, observed for 99 days post tumor implantation. Format: in vivo, mouse.
From the text: as §1, with “(i.e., NCI-H929, JJN-3, MM.1S,” for “(i.e., NCI-H929”, “and MM.1R)” for “and MM.1S)”, “(C.B-17/IcrHsd-Prkdc-scid) or athymic nude (Foxn1^nu)” for “(C.B-17/IcrHsd-Prkdc-scid)”, “approximately 180” for “approximately 200”, “(NCI-H929 cells), 190 mm^3 (JJN3 cells), 160” for “(NCI-H929 cells) or 180”, “(MM.1S cells), or 175 mm^3 (MM.1R” for “(MM.1S”
Mice were treated with either a single intravenous dose of the ADCs 15B2GL-SG3249, I09-5G3249, L15-SG3249 at 0.3 mg/kg or dosed intravenously with J6M0-mc-MMAF weekly at a dose of 0.3 mg/kg for 2 weeks. Control mice were left untreated.

A further experiment has as its system JJN3 xenograft. Put plainly: JJN3 subcutaneous xenograft model. The note with it: single intravenous dose 1 mg/kg, observed for 104 days post tumor implantation. It counts as in vivo, mouse.
From the text: as §1, with “(i.e., NCI-H929, JJN-3, MM.1S,” for “(i.e., NCI-H929”, “and MM.1R)” for “and MM.1S)”, “(C.B-17/IcrHsd-Prkdc-scid) or athymic nude (Foxn1^nu)” for “(C.B-17/IcrHsd-Prkdc-scid)”, “approximately 180” for “approximately 200”, “(NCI-H929 cells), 190 mm^3 (JJN3 cells), 160” for “(NCI-H929 cells) or 180”, “(MM.1S cells), or 175 mm^3 (MM.1R” for “(MM.1S”
Mice were treated with either a single intravenous dose of 15B2GL-SG3249, 109-SG3249, and L15-SG3249 ADCs at 1 mg/kg, or dosed intravenously with J6M0-mc-MMAF ADC weekly at a dose of 1 mg/kg for 3 weeks. Control mice were left untreated.

The next experiment concerns the target T1, monomeric human sBCMA (Homo sapiens, UniProt Q02223).
T1 construct: is comprised of the entire extracellular domain of the molecule; purchased GenScript
T1 sequence (Q02223 1-54 limits assumed): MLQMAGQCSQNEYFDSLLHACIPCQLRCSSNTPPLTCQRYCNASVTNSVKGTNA
Briefly: Kinetics/affinity measurement by SPR (BioRad ProteOn XPR36), antibody captured by anti-Fc, sBCMA flowed over. Format: binding. The note with it: for Koff / Kon: sBCMA 100-6.25 nM; for Kd: unit inferred. The method, then:
The binding of 15B2GL monoclonal antibody and optimized clones I09, L15, P10, N22, and M02 (described in Example 1) was assessed using monomeric human sBCMA (GenScript, Piscataway, N.J.) using a ProteOn™ XPR36 instrument (Bio-Rad, Hercules, Calif.). The binding of J6M0 also was assessed for comparison. Standard amine coupling was used to immobilize 25 μg/ml anti-Fc polyclonal antibody (Jackson ImmunoResearch, West Grove, Pa.) prepared in 10 mM sodium acetate buffer (pH 4.5) to the surface of a ProteOn™ GLC biosensor chip (Bio-Rad, Hercules, Calif.) pre-activated with 20 mM EDAC (1-ethyl-3-(3-dimethylaminopropyl)carbodiimide hydrochloride) and 5 mM Sulfo-NHS (N-hydroxysulfosuccinimide) at a density of ˜200-600 resonance units (RU). 15B2GL, I09, L15, P10, N22, M02, and J6M0 were subsequently injected at a concentration of 1 μg/ml for capture by the immobilized anti-Fc polyclonal antibody. The sensorgram was recorded by flowing two-fold serial dilutions of sBCMA prepared in PBS (pH 7.4) with 0.005% (v/v) Tween®-20, ranging from 100-6.25 nM, over the captured surface for 150 seconds at 75 μL/minute with dissociation time of 600 seconds. ProteOn™ data analysis software was used to analyze the data.
Background: Surface plasmon resonance follows binding to a sensor surface in real time, without labels.

For “J6M0-SG3400: BCMA-targeting ADC of J6M0 with SG3400”, in the experiment with MM.1S xenograft [1], the tumor regrowth result is recorded as “no evidence of tumor regrowth”.
By IC50 is commonly meant the concentration that gives 50% inhibition. Take “J6M0-SG3249: ADC comprising the anti-BCMA antibody J6M0 and SG3249”: the half-inhibitory concentration (IC50) in the experiment with MM.1S cells (sBCMA 0 ng/mL) amounted to 0.004816 µg/mL; in the experiment on MM.1S cells (sBCMA 75 ng/mL) it was 0.01283 µg/mL; with MM.1S cells (sBCMA 270 ng/mL), 0.03226 µg/mL; in the experiment with MM.1S cells (sBCMA 720 ng/mL) it was 0.09292 µg/mL. Besides, the “Fold loss of potency” value was determined as 2.66 in the experiment on MM.1S cells (sBCMA 75 ng/mL vs 0), 6.70 in the experiment with MM.1S cells (sBCMA 270 ng/mL vs 0) and 19.29 in the experiment with MM.1S cells (sBCMA 720 ng/mL vs 0).

B1: I09-SG3249: ADC: optimized clone I09 conjugated to the PBD payload SG3249 (conjugate)
VH: EVQLVESGGGLVKPGGSLRLSCAASGFTFSSYSMNWVRQAPGKGLEWVSSISGSSNYIYYADSVKGRFTISRDNAKNSLYLQMNSLRAEDTAVYYCARGGNYFVEYFQQWGQGTLVTVSS
VL: EIVLTQSPGTLSLSPGERATLSCRASQYISSNYLAWYQQKPGQAPRLLIYGASNRATGIPDRFSGSGSGTDFTLTISRLEPEDFAVYYCQQYSSDPITFGQGTKLEIK
For B1, the tumor regrowth result in the experiment with MM.1S xenograft [2], with NCI-H929 xenograft and in the experiment with JJN3 xenograft was “no evidence of tumor regrowth” each time.

B2: I09: lead optimized clone of 15B2GL; VH SEQ ID NO: 11, VL SEQ ID NO: 12 (antibody, V domains shown)
VH: EVQLVESGGGLVKPGGSLRLSCAASGFTFSSYSMNWVRQAPGKGLEWVSSISGSSNYIYYADSVKGRFTISRDNAKNSLYLQMNSLRAEDTAVYYCARGGNYFVEYFQQWGQGTLVTVSS
VL: EIVLTQSPGTLSLSPGERATLSCRASQYISSNYLAWYQQKPGQAPRLLIYGASNRATGIPDRFSGSGSGTDFTLTISRLEPEDFAVYYCQQYSSDPITFGQGTKLEIK
A word on the Kd: it is the equilibrium constant for the complex coming apart. A low value points to tighter binding. For the molecule B2, in the experiment with monomeric human sBCMA, the Koff came to 5.99E−03, the Kon is on record as 6.09E+05 and the Kd is 9.82 nM.

B3: L15: lead optimized clone of 15B2GL; VH SEQ ID NO: 13, VL SEQ ID NO: 14 (antibody, V domains shown)
VH: EVQLVESGGGLVKPGGSLRLSCAASGFTFSSYSMNWVRQAPGKGLEWVSSISGQSNYIYYADSVKGRFTISRDNAKNSLYLQMNSLRAEDTAVYYCARGGNYFVEYFQYWGQGTLVTVSS
VL: EIVLTQSPGTLSLSPGERATLSCRASQYISSNNLAWYQQKPGQAPRLLIYGASNRATGIPDRFSGSGSGTDFTLTISRLEPEDFAVYYCQQYADSPITFGQGTKLEIK
With B3, in the experiment with monomeric human sBCMA, the Koff amounted to 3.86E−03; the Kon came out at 8.54E+05; the affinity, expressed as Kd, was 4.51 nM.

B4: P10: lead optimized clone of 15B2GL; VH SEQ ID NO: 19, VL SEQ ID NO: 20 (antibody, V domains shown)
VH: EVQLVESGGGLVKPGGSLRLSCAASGFTFRSYSMNWVRQAPGKGLEWVSSISGQSNYIYYADSVKGRFTISRDNAKNSLYLQMNSLRAEDTAVYYCARGGNYYVEYFQYWGQGTLVTVSS
VL: EIVLTQSPGTLSLSPGERATLSCRASQYISSNYLAWYQQKPGQAPRLLIYGASNRATGIPDRFSGSGSGTDFTLTISRLEPEDFAVYYCQQYTDSPITFGQGTKLEIK
In the experiment with monomeric human sBCMA, B4 had a Koff of 3.73E−03, a Kon of 7.01E+05 and a Kd of 5.32 nM.

B5: N22: lead optimized clone of 15B2GL; VH SEQ ID NO: 17, VL SEQ ID NO: 18 (antibody, V domains shown)
VH: EVQLVESGGGLVKPGGSLRLSCAASGFTFSSYSMNWVRQAPGKGLEWVSSISGSSNYIYYADSVKGRFTISRDNAKNSLYLQMNSLRAEDTAVYYCARGGNYFVEYFQYWGQGTLVTVSS
VL: EIVLTQSPGTLSLSPGERATLSCRASQYISSNYLAWYQQKPGQAPRLLIYGASNRATGIPDRFSGSGSGTDFTLTISRLEPEDFAVYYCQQYSSSPITFGQGTKLEIK
Turning to B5, in the experiment with monomeric human sBCMA, the Koff amounted to 8.73E−03, the Kon is listed as 5.36E+05 and the Kd worked out at 16.3 nM.

B6: M02: lead optimized clone of 15B2GL; VH SEQ ID NO: 15, VL SEQ ID NO: 16 (antibody, V domains shown)
VH: EVQLVESGGGLVKPGGSLRLSCAASGFTFSSYSMNWVRQAPGKGLEWVSSISGQSNYIYYADSVKGRFTISRDNAKNSLYLQMNSLRAEDTAVYYCARGGNYYVEYFQYWGQGTLVTVSS
VL: EIVLTQSPGTLSLSPGERATLSCRASQYISSNNLAWYQQKPGQAPRLLIYGASNRATGIPDRFSGSGSGTDFTLTISRLEPEDFAVYYCQQYSSDPITFGQGTKLEIK
In the experiment with monomeric human sBCMA, B6 had a Koff of 4.97E−03, a Kon of 4.99E+05 and a dissociation constant (Kd) of 9.95 nM.
